The test system of one test is E. coli strain 25303. The experiment in a line: Growth inhibition of E. coli in Luria broth, optical density (LAL 5000). The format is cell-based. As for the experimental part: E. coli cells were cultured overnight at 37° C. in LB. Aliquots were diluted 1:100 in fresh LB (control). LB plus PMB was serially diluted from 0.25 μg/ml to 0.001 μg/ml. LB plus Limulus ENP was formulated at concentrations from 20 to 0.07,μg/ml. Optical density of the cell culture was recorded at 410 nm during the course of the experiment.
The tubes were then inoculated with cells of a log phase E. coli culture.
TET was serially diluted with LB in ten-fold increments from 10 μg/ml to 0.0001 μg/ml.
E. coli cells were cultured overnight at 37° C. in LB. Aliquots of the culture were diluted 1:100 in fresh LB as controls. Test samples consisted of cells in: LB plus AMP at 2.5 μg/ml; LB plus Limulus ENP at 25 and 5 μg/ml; and combination of 2.5 μg/ml AMP and either 2.5 or 5.0 μg/ml Limulus ENP. Optical density of the cell samples was recorded at 410 nm during the course of the experiment.

Another test concerns Bortadella sp. The experiment in a line: Growth inhibition of Bortadella sp., optical density. Conditions: GMS alone.
The test system of another test is E. coli cultures. Description: Endotoxin levels in antibiotic-inhibited cultures, Limulus amebocyte lysate (LAL) assay. The format is cell-based. As for the experimental part: Antibiotic-inhibited gram-negative bacteria release endotoxins into the medium. […] E. coli cultures treated with antibiotic alone or in combination with Limulus ENP were prepared and incubated as described in Sections 6.3.1 and 6.3.2, above. The endotoxin levels present in the cultures were measured using the standard Limulus amebocyte lysate (LAL) assay.

The subject of a further test is meningococcal endotoxins. Conditions: rabbits, cited from earlier work.
Another test deals with E. coli endotoxins. Conditions: rabbits, cited from earlier work.
In test [1] the test system is Propionibacterium acnes, ATCC No. 11827. Description: Zone inhibition assay. Particulars: 4 mm disc treated with 10 μl (Limulus ENP 1 mg/ml; benzoyl peroxide 0.05%), overnight at 37° C. The class given is cell-based. Here is the method:
The inhibitory effect of a recombinant Limulus ENP (i.e., that expressed from the fusion protein II construct discussed above) was tested against Propionibacterium acnes, the bacterium that causes acne, using a zone inhibition assay. Petri dishes were filled with sterile nutrient agar following standard microbiological procedures. The nutrient agar-filled dishes were allowed to cool and harden before being inoculated with test bacteria. Using a sterile swab, the surface of the petri dishes were inoculated with a culture of Propionibacterium acnes, ATCC No. 11827, that had grown overnight at 37° C.
Sterile filter paper discs (4 mm, Whatman) were treated with 10 μl of aqueous solutions of (1) recombinant Limulus ENP at a concentration of 1 mg/ml (the test sample); (2) benzoyl peroxide at a concentration of 0.05% (the positive control); or (3) sterile saline (the negative control). Benzoyl peroxide serves as a positive control because it is known to inhibit the growth of Propionibncterium acnes.
The treated filter paper discs were placed on the inoculated plates and the plates incubated overnight at 37° C. The Limulus ENP disc produced a zone of inhibition having a diameter of 4-5 mm. The benzoyl peroxide disc produced a zone of inhibition having a diameter of 10-11 mm. The negative control disc produced no zone of inhibition.

Test [2] relates to uncharacterized gram-positive bacterium isolated from marine organisms. The experiment in a line: Growth inhibition of gram-positive bacterium from marine organisms, optical density at 410 nm. The class given is cell-based. Conditions: Limulus ENP at 2.5 or 5 μg/ml. Here is the method: An uncharacterized gram-positive bacterium isolated from marine organisms was cultured overnight at 37° C. in LB. Aliquots of the culture were diluted 1:100 in fresh LB as controls. Test samples consisted of cells in LB plus LimulusENP at 2.5 or 5.0 μg/ml. The control and Limulus ENP-treated cultures were incubated at 37° C. Optical density of the cultures was recorded at 410 nm during the course of the experiment to monitor the growth of the gram-positive bacterium.

Test [3] has as its system Pool 4 (Yeast): Candida parapilosis, C. albicans. Description: Preservative challenge of oil in water emulsion, plate count, Pool 4. The class given is cell-based. Conditions: 0.01% (weight/volume) in emulsion, eight week period. As for the experimental part:
(§1) The cell numbers of the pools were quantitated by serial dilution. That is, the number of viable cells was determined by taking an aliquot from the sample, diluting it and culturing it so that colonies arising from individual cells could be counted.
(§2) An oil in water emulsion was prepared comprising the following ingredients:
(§3) To test its antimicrobial activity, Limulus ENP was added to the emulsion to achieve a concentration of about 0.01 weight percent, with appropriate adjustment of distilled water. Control and Limulus ENP-containing emulsions were inoculated with 10^8 viable cells from each of the five microorganism pools. The number of viable microbial cells was determined by plate count at the time of the initial inoculating, and at weekly intervals up to 8 weeks. After obtaining an aliquot for cell count at Week 3, microbes were re-inoculated to initial levels. The weekly cell counts are shown in Table 5 as logs of the cell number.

Test [4] concerns Pool 5 (Fungi): Aspergillus niger. The experiment in a line: Preservative challenge of oil in water emulsion, plate count, Pool 5. The format is cell-based. Conditions: 0.01% (weight/volume) in emulsion, eight week period. Here is the method: as §1, §2, §3
The test system of a further test is endotoxins. Description: Biological activity of recombinant Limulus ENP from S. cerevisiae. Conditions: from pCGS965-transformed S. cerevisiae. From the text:
In one yeast expression system, an expression construct encoding the aforementioned fusion protein I was inserted into an autonomous replicating plasmid yielding pCGS965 (FIG. 9). This plasmid, in turn, was used to transform S. cerevisiae strain 2470. pCGS965 carries the gene for uracil production, which complements the host strain's auxotrophy for this base. Recombinant Limulus ENP has been expressed, purified, and characterized from pCGS965-transformed cells grown at the 500 liter scale. Fusion protein I was expressed and correctly processed, and the Limulus ENP secreted into the medium. The recombinantly produced Limulus ENP has biological activity identical to that of ENP isolated from Limulus amebocytes.

In test [5] the test system is endotoxins or lipid A from gram-negative bacteria. Conditions: ENP added in excess; cited from earlier work.
A further test has as its system murine splenocytes. Particulars: cited from earlier work.
In another test the test system is human endothelial cells. Particulars: cited from earlier work.
For another test, the system named is human macrophages. Particulars: cited from earlier work.
In test [6] the test system is rough gram-negative bacteria. Particulars: cited from earlier work.
Test [7] concerns Escherichia coli endotoxin. Conditions: rats; cited from earlier work.
Test [8] deals with encapsulated strain of E. coli. Conditions: rats, cited from earlier work.
The next test deals with E. coli. Particulars: rabbits; cited from earlier work.
Where [9] appears, read: compared with anti-endotoxin antibody HA-1A.

Protocol for Bortadella sp.: An LAL 5000 spectrophotometer (Associates of Cape Cod) was used to monitor optical density changes over time when bacteria were grown in sterilized Luria broth (LB). The LAL 5000 can accommodate up to 32 individual 10×75 mm glass test tubes in its circular array. Automated temperature control was maintained at 37° C. for these experiments. LB was placed into sterile, oven depyrogenated glass test tubes. […] Other gram-negative (E. coli strains Rosenbergii sp., K12, X10, HB101, Shewanella sp., Bortadella sp.) and gram-positive bacteria (e.g., S. aureus, and Bacillus spp.) were grown in this manner and changes in optical density were monitored over time. The optical density data was collected, stored and analyzed by computer which was interfaced with the LAL 5000.
The tubes were then inoculated with cells from a log phase culture of Bortadella sp. Optical density of each tube was monitored via method described above.

In the case of gentamycin sulfate [GMS], the “effective concentration which substantially inhibits the growth of E. coli” value in the test with E. coli strain 25303 (GMS alone, Luria broth) was found to be 0.5 µg/mL. Moreover, the “lowest effective concentration which almost totally inhibited the growth of Bortadella sp.” value in the test on Bortadella sp. is 10 µg/mL.
As to polymixin B [PMB, reference compound], the “inhibition of growth of E. coli” value in the test with E. coli strain 25303 (0.06 μg/ml PMB alone) is given as “approximately 20%”. Moreover, the “lowest effective concentration which totally inhibited the growth of E. coli” value in the test on E. coli strain 25303 (PMB alone, Luria broth) worked out at 5 µg/mL. Moreover, in the test on E. coli cultures (E. coli cultures inhibited by PMB at 5 μg/ml), the “ENDOTOXIN LEVEL” value came to 3.8 µg/mL. Besides, the “physiologic functions or mortality” value in the test with meningococcal endotoxins (pretreatment with PMB alone) is “failed to improve”. For the same molecule, the shock and mortality entry in the test with E. coli endotoxins (pretreatment with PMB, potent dose of E. coli endotoxins) was “effective in preventing shock and mortality”.
Regarding `O=C(OOC(=O)c1ccccc1)c1ccccc1` [benzoyl peroxide, reference compound], the “zone of inhibition, diameter” value in test [1] is on record as 10-11 mm.

B1: Limulus ENP: the 11.8 kDa ENP from the horseshoe crab Limulus polyphemus; residues 5 to 105 of SEQ ID NO:2 or SEQ ID NO:5 (protein, listed as Limulus polyphemus)
chain: DGIWTQLIFTLVNNLATLWQSGDFQFLDHECHYRIKPTFRRLKWKYKGKFWCPSWTSITGRATKSSRSGAVEHSVRNFVGQAKSSGLITQRQAEQFISQYN
Consider B1, for which the “growth of the gram-positive bacterium” value in [2] was “effectively inhibited”. Besides, in test [1], the “zone of inhibition, diameter” value is recorded as 4-5 mm. Also, the “effect of serum proteins on biological activity, antimicrobial properties and endotoxin binding activity” value in the test on E. coli cultures (serum-containing media) is reported as “did not adversely affect”. For the same molecule, the “killing and re-growth of the yeasts Candida parapilosis and Candida albicans” value in test [3] is “effective at killing and preventing the re-growth”. Also, the “effect on the fungus Aspergiltus niger” value in test [4] is recorded as “limited fungal growth”. In addition, the “biological activity compared with ENP isolated from Limulus amebocytes” value in the test with endotoxins is given as “identical”.

B2: ENP: protein found in horseshoe crab amebocyte lysates that binds and neutralizes the biological activity of endotoxins (protein, listed as Limulus polyphemus)
chain: B1 chain
As to B2, the “endotoxin activity in the mixture” value in test [5] is listed as “greatly reduced”. Also, the “endotoxin induction of mitogenesis of murine splenocytes” value in the test with murine splenocytes was “inhibit”. In addition, in the test with human endothelial cells, the “endotoxin induction of activation of human endothelial cells” value is recorded as “inhibit”. Besides, in the test with human macrophages, the “endotoxin induction of release of tumor necrosis factor by human macrophages” value is listed as “inhibit”. For the same molecule, the “growth of rough gram-negative bacteria” value in [6] is reported as “inhibits the growth”. The “protection against lethal Escherichia coli endotoxin challenge” value in test [7] is given as “protective”. The “physiological functions and survival rate” value in the test on meningococcal endotoxins (administered 30 minutes after meningococcal endotoxin challenges) and with E. coli endotoxins (2.5 or 5 mg/kg before lethal endotoxin challenges) was “significantly improved” in each case. Besides, the “protection against lethal meningococcal challenge” value in the test on meningococcal endotoxins is “protective”. Moreover, the circulating endotoxin concentrations entry in [8] (setting [9]) is reported as “significantly lower”. Also, the survival rates entry (in test [8] (setting [9]); in the test with E. coli endotoxins (administered 30 min. after endotoxin challenge)) was “improved survival rates” throughout. In addition, the “lethal effect of endotoxins released by the infecting E. coli” value in [8] (dose of 50 mg/kg, also when administered after endotoxin had circulated) was “blocked the lethal effect”. For the same molecule, the “survival rate with E. coli sepsis” value (in test [8]; with E. coli) was “improve the survival rate” each time.

The values above are taken from patent US20020107174A1, “COMPOSITION COMPRISING ENDOTOXIN NEUTRALIZING PROTEIN AND DERIVATIVES AND USES THEREOF” (priority 1998, published 2002).
